Laboratory results from the supplement of paper PMC9112550, “Optimization of the antimicrobial peptide Bac7 by deep mutational scanning” (BMC Biology, 2022).

test system: Escherichia coli TOP10; experiment: shrunken log2 fold change of peptide-encoding DNA abundance (4.5 h post-induction vs induction); higher = less antimicrobial activity (less host growth inhibition); conditions: time post-induction: 4.5 h; library: site-saturation at positions 5, 18, 19, 20
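Also: peptides expressed intracellularly from a pBAD plasmid library in pooled LB shake-flask culture, induced with 0.3% L-arabinose, DNA abundance read by NGS, three biological replicates, DESeq2 with apeglm shrinkage.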

Row | Sequence | shrunken log2 fold change
1 | RRIRLRPPRLPRPRPRPFRKPRP | 0.0823
2 | RRIRLRPPRLPRPRPRPFRRPRP | -0.0943
3 | RRIRLRPPRLPRPRPRPFTHPRP | -0.342
4 | RRIRLRPPRLPRPRPRPFVDPRP | 0.00121
5 | RRIRLRPPRLPRPRPRPFVFPRP | -0.337
6 | RRIRLRPPRLPRPRPRPFVVPRP | -0.236
7 | RRIRLRPPRLPRPRPRPFWFPRP | 0.0715
8 | RRIRLRPPRLPRPRPRPFWHPRP | -0.0379
9 | RRIRLRPPRLPRPRPRPFYWPRP | 0.228
10 | RRIRLRPPRLPRPRPRPGAFPRP | -0.0131
11 | RRIRLRPPRLPRPRPRPGAWPRP | 0.0481
12 | RRIRLRPPRLPRPRPRPGCIPRP | -0.346
13 | RRIRLRPPRLPRPRPRPGDDPRP | 0.431
14 | RRIRLRPPRLPRPRPRPGEHPRP | -0.145
15 | RRIRLRPPRLPRPRPRPGEWPRP | -0.00947
16 | RRIRLRPPRLPRPRPRPGGCPRP | 0.177
17 | RRIRLRPPRLPRPRPRPGGNPRP | -0.0421
18 | RRIRLRPPRLPRPRPRPGHMPRP | -0.236
19 | RRIRLRPPRLPRPRPRPGHTPRP | 0.183
20 | RRIRLRPPRLPRPRPRPGKIPRP | -0.125
21 | RRIRLRPPRLPRPRPRPGKWPRP | 0.121
22 | RRIRLRPPRLPRPRPRPGLAPRP | 0.164
23 | RRIRLRPPRLPRPRPRPGNHPRP | -0.267
24 | RRIRLRPPRLPRPRPRPGNNPRP | -0.58
25 | RRIRLRPPRLPRPRPRPGPPPRP | 0.445

Row | Sequence | shrunken log2 fold change
26 | RRIRLRPPRLPRPRPRPGPYPRP | -0.215
27 | RRIRLRPPRLPRPRPRPGSGPRP | 0.337
28 | RRIRLRPPRLPRPRPRPGSIPRP | -0.301
29 | RRIRLRPPRLPRPRPRPGSRPRP | -0.183
30 | RRIRLRPPRLPRPRPRPGTGPRP | -0.0967
31 | RRIRLRPPRLPRPRPRPGVIPRP | -0.298
32 | RRIRLRPPRLPRPRPRPGWLPRP | 0.0878
33 | RRIRLRPPRLPRPRPRPGWWPRP | 0.155
34 | RRIRLRPPRLPRPRPRPGYPPRP | -0.361
35 | RRIRLRPPRLPRPRPRPHALPRP | -0.396
36 | RRIRLRPPRLPRPRPRPHCNPRP | -0.363
37 | RRIRLRPPRLPRPRPRPHCWPRP | 0.109
38 | RRIRLRPPRLPRPRPRPHDGPRP | 0.0171
39 | RRIRLRPPRLPRPRPRPHDMPRP | -0.117
40 | RRIRLRPPRLPRPRPRPHDVPRP | 0.0205
41 | RRIRLRPPRLPRPRPRPHEWPRP | -0.0141
42 | RRIRLRPPRLPRPRPRPHHTPRP | -0.558
43 | RRIRLRPPRLPRPRPRPHIAPRP | -0.205
44 | RRIRLRPPRLPRPRPRPHKKPRP | -0.163
45 | RRIRLRPPRLPRPRPRPHLRPRP | -0.151
46 | RRIRLRPPRLPRPRPRPHPDPRP | -0.111
47 | RRIRLRPPRLPRPRPRPHRCPRP | -0.0644
48 | RRIRLRPPRLPRPRPRPHSIPRP | -0.191
49 | RRIRLRPPRLPRPRPRPHSRPRP | -0.0563
50 | RRIRLRPPRLPRPRPRPHTVPRP | -0.267

Row | Sequence | shrunken log2 fold change
51 | RRIRLRPPRLPRPRPRPHVAPRP | 0.0259
52 | RRIRLRPPRLPRPRPRPHVSPRP | 0.00444
53 | RRIRLRPPRLPRPRPRPHVYPRP | -0.211
54 | RRIRLRPPRLPRPRPRPHWDPRP | 0.176
55 | RRIRLRPPRLPRPRPRPHWFPRP | -0.08
56 | RRIRLRPPRLPRPRPRPHYWPRP | -0.356
57 | RRIRLRPPRLPRPRPRPIAPPRP | 0.372
58 | RRIRLRPPRLPRPRPRPIAQPRP | -0.0527
59 | RRIRLRPPRLPRPRPRPICNPRP | -0.243
60 | RRIRLRPPRLPRPRPRPIDAPRP | 0.206
61 | RRIRLRPPRLPRPRPRPIDWPRP | -0.00448
62 | RRIRLRPPRLPRPRPRPIEDPRP | 0.0562
63 | RRIRLRPPRLPRPRPRPIFGPRP | 0.0171
64 | RRIRLRPPRLPRPRPRPIFIPRP | 0.606
65 | RRIRLRPPRLPRPRPRPIIIPRP | -0.302
66 | RRIRLRPPRLPRPRPRPIIKPRP | -0.527
67 | RRIRLRPPRLPRPRPRPIIYPRP | -0.196
68 | RRIRLRPPRLPRPRPRPILFPRP | -0.0559
69 | RRIRLRPPRLPRPRPRPIMVPRP | -0.117
70 | RRIRLRPPRLPRPRPRPIMYPRP | -0.16
71 | RRIRLRPPRLPRPRPRPINMPRP | -0.482
72 | RRIRLRPPRLPRPRPRPINVPRP | -0.54
73 | RRIRLRPPRLPRPRPRPIPFPRP | -0.0242
74 | RRIRLRPPRLPRPRPRPIPTPRP | -0.105
75 | RRIRLRPPRLPRPRPRPIQRPRP | -0.00804
